Results on two substances are retold here after PMC7730623.

The stoichiometry N is the number of molecules, sites or subunits per partner or assembly.

Assay [1] concerns the target human ameloblastin full-length isoform I (AMBN ISO I) (human) (UniProt Q9NP70). Briefly: AUC; sedimentation velocity, 23 uM protein, 20 °C, 10 mM Tris-HCl pH 7.4, 100 mM NaCl, with 10 mM CaCl2; c(s) with bimodal f/f0; average size of heterogeneous oligomers.
Assay [2] shares this target. Briefly: AUC; sedimentation velocity, 23 uM protein, 20 °C, 10 mM Tris-HCl pH 7.4, 100 mM NaCl, no Ca2+; c(s) with bimodal f/f0; average size of heterogeneous oligomers.
The target in assay [3] is human ameloblastin full-length isoform II (AMBN ISO II) (human) (UniProt Q9NP70). The assay can be described thus: AUC; sedimentation velocity, 23 uM protein, 20 °C, 10 mM Tris-HCl pH 7.4, 100 mM NaCl, with 10 mM CaCl2; c(s) with bimodal f/f0; average size of heterogeneous oligomers.
Assay [4] has the same target. Briefly: AUC; sedimentation velocity, 23 uM protein, 20 °C, 10 mM Tris-HCl pH 7.4, 100 mM NaCl, no Ca2+; c(s) with bimodal f/f0; average size of heterogeneous oligomers.

With “human ameloblastin full-length isoform I (AMBN ISO I) (from UniProt Q9NP70-1 27-447) (natural protein)”, the stoichiometry N was 33 monomers in assay [1] and 28 monomers in assay [2].
Turning to “human ameloblastin full-length isoform II (AMBN ISO II) (from UniProt Q9NP70-2 27-432) (natural protein)”, the values for the stoichiometry N in assay [3] and in assay [4] were 20 monomers and 19 monomers, respectively.
